Assay results as given in patent US20150018409A1, “CHIMERIC POLYPEPTIDES AND THEIR USE” (ADRIACELL S.P.A., priority 2003, published 2015).

Tests used:
[1] = system: neuroblasoma cell lines (IMR32, LAN5, GI-LIN) and primary neuroblastoma cell isolates; conditions: upon treatment with SCPVUTAT
Procedure: For the analysis the DNA content was assayed with FACS after staining of the cells with propidium J^−.

[2] = system: MRC-5 cells (ATM positive); conditions: SCPVUTAT 100 nM or HU 1 mM
Procedure: [sequence] dependent Ser^15 phosphorylation of p53. The ATM positive cell-line MRC5 was treated with [sequence] (100 nM, SC) or with hydroxyurea (1 mM, HU) for the time periods as indicated; as a control non treated cells were used (O).
(§1) P53 phosphorylation on Ser15 in response to [sequence] treatment was assayed in ATM positive or negative cell lines (MRC-5 and AT-5 respectively). For comparison parallel experiments were done with hydroxyurea (HU). […] For this immunoblotting experiments were done with extracts after treatment, by using specific antibodies to a phosphorylated Ser15 in p53 for specific detection.

[3] = system: AT-5 cells (ATM negative); conditions: SCPVUTAT 100 nM or HU 1 mM
Procedure: AT-5 cells, negative for ATM were treated with [sequence]
as §1

[4] = system: NHEJ mutated cell lines (V3, xrss5, XR-1, HIS P1.13-11); experiment: Colony formation assay of NHEJ mutated cell lines; type: cell-based, rodent
Procedure: Clonogenic assay of CHO cells that were mutated for proteins involved in the NHEJ repair-pathway treated with […]. The cell lines used are AA8 (parental line), V3 (DNA-PCCS^(−/−)), xrss5 (KU80^(−/−)) and XR-1 (XRCC4^(−/−)), HIS P1.13-11 (KU70^(−/−)) and the corresponding parental cell line CHO-K1. Various dilutions of the CHO cells containing the NHEJ mutations as indicated were treated for 24 hours with […] (25 nM, grey bars; 100 nM, black bars) or not treated (white bars); the cells were washed and then grown for 7-10 days, stained with GIEMSA and colonies were counted.
These cell lines were analysed in the nuclease activity assays with […] in vivo and compared to the parental cell lines as indicated. […] Seven to ten days after addition, cell growth was analysed by staining with GIEMSA-blue and quantification of diverse cell-concentrations. […] In analogy, cell growth was quantified after a single treatment with […] for 12 hours (10 nM, grey bars; 75 nM, black bars; not treated, white bars). […] The multiwell-microtiter-plates (for an example see FIG. 13A) were scanned using the VersaDOC® (BioRad) imaging system and growth was automatically quantified with the software package Quantify One® for the analysis of the microtiter-plates (microtiter-plates scanning software).

HCT116 (p53(+/+)) cells = experiment: Cell cycle arrest point: nuclear morphology and immunofluorescence of cyclin B1 and Cdc25C; type: cell-based, human
Procedure: Microscopic analysis of the HCT116 (p53(+/+)) cells not treated, or treated with […] (100 nM) for 30 hours, or with taxol (0.2 μg/ml). Immunofluorescence analysis was done with primary antibodies specific for cyclin B1 or specific for Cdc25C and coloured with secondary conjugates of FITC (green, cyclinB1) or TRITC (red, Cdc25C).
Moreover, the initiation of mitosis, i.e. induced with the microtuble blocking agents Nocodazol or Taxol, can be detected by the nuclear activity of the Cdc2 kinase and also by nuclear localisation of Cdc25C. These assays allow to dissect the exact point of cell cycle arrest after […] treatment and this further allows to detect disturbations in this phase of the cell cycle relative to a positive control. Similar experiments are well known in the art also for other phases of the cell cycle. The assay shown in FIG. 7A and the immunofluorescence analysis shown in FIG. 14 show examples for these types of experiments.
HCT116 (p53(+/+)) not treated, or treated for 30 hours with […] (100 nM), or with Taxol (0.2 μg/ml) were fixated with 3% PFA and treated with specific antibodies to cyclin B1 or for Cdc25C. The immunofluorescence was analysed with the microscope (see FIG. 14) with specific primary antibodies to cyclin B1 conjugated to FITC labelled secondary antibodies (green) or with specific primary antibodies to Cdc25C conjugated to TRITC labelled secondary antibodies (red).

[5] = system: U2OS osteosarcoma cells and IMR90 primary fibroblasts; experiment: Protein transduction of the chimeric proteins (immunoblot and immunofluorescence with PvuII antibody); type: cell-based, human
Procedure: For a comparison aliquots of the supernatants of the cell culture taken before extract preparation were included in the analysis (upper panel, SUPERNATANT).
In addition DNA costaining was obtained with propidium J after RNAse A digest (red, upper panel).
The transduction capacity of the chimeric proteins was assayed in U2OS osteosarcoma cells and in the IMR90 primary fibroblasts cells. The cells were grown in DMEM containing 10% FCS and treated with the proteins of the invention in the same medium, in general in the presence of antibiotics. After 10 minutes of incubation of the cells with increasing quantities of the fusion protein […] (1, 10, 50, 100, 200 nM) and with the protein SCPVU (single chain PvuII without TAT) and SC34 as a control (prepared as described for […] except that the enzyme PvuII contains a mutant in position 34) cell extracts were prepared, separated on SDS-PAGE and assayed by immuno-blot analysis with a monospecific antibody to PvuII. Further, uptake was assayed after 30 min of incubation by immuno-fluorescence analysis using PvuII specific antibodies and nuclear costaining with propidium iodide.

B1: SCPVUTAT: single chain PvuII endonuclease (aa 1-157, GSGG linker, aa 2-157) fused to HIV Tat peptide and six histidine tag; SEQ ID NO:2 (protein, listed as Proteus vulgaris)
chain: MSHPDLNKLLELWPHIQEYQDLALKHGINDIFQDNGGKLLQVLLITGLTVLPGREGNDAVDNAGQEYELKSINIDLTKGFSTHHHMNPVIIAKYRQVPWIFAIYRGIAIEAIYRLEPKDLEFYYDKWERKWYSDGHKDINNPKIPVKYVMEHGTKIYGSGGSHPDLNKLLELWPHIQEYQDLALKHGINDIFQDNGGKLLQVLLITGLTVLPGREGNDAVDNAGQEYELKSINIDLTKGFSTHHHMNPVIIAKYRQVPWIFAIYRGIAIEAIYRLEPKDLEFYYDKWERKWYSDGHKDINNPKIPVKYVMEHGTKIYGSYGRKKRRQRRRGGSHHHHHH
- induction of apoptosis [1]: significant amount of apoptosis was induced
- p53-Ser15 phosphorylation [2]: specific phosphorylation of p53-Ser^15 is obtained
- p53-Ser15 phosphorylation [3]: specific phosphorylation of p53-Ser^15 is obtained
- colony formation, cells with mutants in the DNA-PK incl. catalytic subunit ([4]; single addition of SCPVUTAT): strong reduction in the colony formation assay
- colony formation activity ([4]; single treatment, all NHEJ mutated cell lines analysed): strongly reduce colony formation activity
- cell cycle stop from localisation of Cdc25C and cyclin B (HCT116 (p53(+/+)) cells; 30 hours, SCPVUTAT 100 nM or Taxol 0.2 μg/ml): G2 phase stop
- cell cycle block (HCT116 (p53(+/+)) cells; upon treatment with SCPVUTAT (100 nM)): reversible block in the phase of the cell cycle that corresponds to late S/G2
- import / enrichment in the cells ([5]; 1-200 nM SCPVUTAT, controls 200 nM, 10 min incubation, immunoblot with PvuII antibody): enriched in the cells and in particular in the nucleus
- uptake, share of the cells analysed ([5]; protein added to culture medium (DMEM, 10% FCS), immunoblot after 10 min, immunofluorescence after 30 min): ~100%
